Laboratory results: PMC3633684

Substrate: CC(=O)Oc1ccc([N+](=O)[O-])cc1
Test: purified protein
Format: biochemical, Caulobacter vibrioides
Settings: 40 mM phosphate buffer pH 7.4, 37 °C, 0.2 μM HfsH

B1: HfsH (Caulobacter vibrioides CB15) (protein)
chain: MPMEFEKVDAYEPDRSLKGKLRRRLIRLAHRRPAKVALERPMVSFSFDDAPATACEAGARALEARGLRGTYYFAAGLTGRDGPMGRYATGEDARRLHEAGHEIACHTYSHLDCGQSSQTETLADVDRNAESLAAWGAGDPVSFAYPYGDVAAPAKTALSGRFKTLRALHHGLITDGADLNQTPAVGIEGEDGETVAKAWLDKAKARKAWLILYTHDVAGQPSQWGCTTEALERLIDRALADGFDVVTVAEGSRRIGL
- Km: 11.74 mM
